{
  "source": "paper PMC11352367",
  "about": "(Cells, 2024)",
  "biological_target": "the molecule itself",
  "assay": "high-speed atomic force microscopy; α-actinin alone (50 nM) on bare mica, observation buffer, room temperature",
  "data": [
    {"protein": "Rabbit skeletal muscle-derived α-actinin (natural protein) MNQIEPGVQYNYVYDEDEYMIQEEEWDRDLLLDPAWEKQQRKTFTAWCNSHLRKAGTQIENIEEDFRNGLKLMLLLEVISGERLPKPDRGKMRFHKIANVNKALDYIASKGVKLVSIGAEEIVDGNVKMTLGMIWTIILRFAIQDISVEETSAKEGLLLWCQRKTAPYRNVNIQNFHTSWKDGLGLCALIHRHRPDLIDYSKLNKDDPIGNINLAMEIAEKHLDIPKMLDAEDIVNTPKPDERAIMTYVSCFYHAFAGAEQAETAANRICKVLAVNQENERLMEEYERLASELLEWIRRTIPWLENRTPEKTMKAMQKKLEDFRDYRRKHKPPKVQEKCQLEINFNTLQTKLRISNRPAFMPSEGKMVSDAGAWQRLEQAEKGYEEWLLNEIRRLERLEHLAEKFRQKASTHETWAYGKEQILLQKDYESASLTEVRALLRKHEAFESDLAAHQDRVEQIAAIAQELNELDYHDAVNVNDRCQKICDQWDRLGTLTQKRREALERTEKLLETIDQLHLEFAKRAAPFNNWMEGAMEDLQDMFIVHSIEEIQSLITAHEQFKATLPEADGERQSIMAIQNEVEKVIQSYNIRISSSNPYSTVTMDELRAKWDKVKQLVPIRDQSLQEELARQHANERLRRQFAAQANAIGPWIQNKMEEIARSSIQITGALEDQMNQLKQYEHNIINYKNNIDKLEGDHQLIQEALVFDNKHTNYTMEHIRVGWELLLTTIARTINEVETQILTRDAKGITQEQMNEFRASFNHFDRRKNGLMDHEDFRACLISMGYDLGEAEFARIMTLVDPNGQGTVTFQSFIDFMTRETADTDTAEQVIASFRILASDKPYILAEELRRELPPDQAQYCIKRMPAYSGPGSVPGALDYTAFSSALYGESDL", "values": [
      {"measurement": "stoichiometry N", "value": 2}
    ]}
  ]
}
